Experimental data from US20150344570A1 (published 2015).

T1: FcγRIIa H (human, UniProt P12318 34-217)
T1 construct: extracellular domain; also called FcgRIIa H; 2aH; not shown: His tag at the C terminus
T1 sequence (looked up): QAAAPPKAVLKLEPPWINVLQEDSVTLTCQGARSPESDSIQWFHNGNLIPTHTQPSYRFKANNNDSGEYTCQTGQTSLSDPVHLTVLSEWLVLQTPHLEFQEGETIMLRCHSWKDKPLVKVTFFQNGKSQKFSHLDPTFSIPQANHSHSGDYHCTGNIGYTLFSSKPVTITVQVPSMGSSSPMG

T2: FcγRIIb (human, UniProt P31994 43-217)
T2 construct: extracellular domain; also called FcgRIIb; 2b; not shown: His tag at the C terminus
T2 sequence (looked up): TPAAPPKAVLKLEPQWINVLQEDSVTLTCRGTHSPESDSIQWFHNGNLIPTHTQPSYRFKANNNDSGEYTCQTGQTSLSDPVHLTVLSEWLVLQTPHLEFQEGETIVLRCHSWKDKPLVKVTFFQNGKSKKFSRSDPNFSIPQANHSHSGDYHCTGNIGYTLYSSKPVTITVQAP

B1: GpH7-A5/GpH7-B3 variant P329_02A/GpL16-k0 (antibody, human IgG1, kappa)
heavy 1: not shown
heavy 2: not shown
light: DIVMTQSPLSLPVTPGEPASISCQASESLVHSNRNTYLHWYLQKPGQSPQLLIYKVSNRFSGVPDRFSGSGSGTDFTLKISRVEAEDVGVYYCSQNTHVPPTFGQGTKVEIERTVAAPSVFIFPPSDEQLKSGTASVVCLLNNFYPREAKVQWKVDNALQSGNSQESVTEQDSKDSTYSLSSTLTLSKADYEKHKVYACEVTHQGLSSPVTKSFNRGEC
notes: He Ab: mutation in the GpH7-B3 H chain only
B2: GpH7-A5/GpH7-B3 variant P329_18N/GpL16-k0 (antibody, human IgG1, kappa)
heavy 1: not shown
heavy 2: not shown
light: DIVMTQSPLSLPVTPGEPASISCQASESLVHSNRNTYLHWYLQKPGQSPQLLIYKVSNRFSGVPDRFSGSGSGTDFTLKISRVEAEDVGVYYCSQNTHVPPTFGQGTKVEIERTVAAPSVFIFPPSDEQLKSGTASVVCLLNNFYPREAKVQWKVDNALQSGNSQESVTEQDSKDSTYSLSSTLTLSKADYEKHKVYACEVTHQGLSSPVTKSFNRGEC
notes: as for B1
B3: GpH7-A5/GpH7-B3 variant P329_19Q/GpL16-k0 (antibody, human IgG1, kappa)
heavy 1: not shown
heavy 2: not shown
light: DIVMTQSPLSLPVTPGEPASISCQASESLVHSNRNTYLHWYLQKPGQSPQLLIYKVSNRFSGVPDRFSGSGSGTDFTLKISRVEAEDVGVYYCSQNTHVPPTFGQGTKVEIERTVAAPSVFIFPPSDEQLKSGTASVVCLLNNFYPREAKVQWKVDNALQSGNSQESVTEQDSKDSTYSLSSTLTLSKADYEKHKVYACEVTHQGLSSPVTKSFNRGEC
notes: as for B1
B4: GpH7-A5/GpH7-B3 variant P329_06M/GpL16-k0 (antibody, human IgG1, kappa)
heavy 1: not shown
heavy 2: not shown
light: DIVMTQSPLSLPVTPGEPASISCQASESLVHSNRNTYLHWYLQKPGQSPQLLIYKVSNRFSGVPDRFSGSGSGTDFTLKISRVEAEDVGVYYCSQNTHVPPTFGQGTKVEIERTVAAPSVFIFPPSDEQLKSGTASVVCLLNNFYPREAKVQWKVDNALQSGNSQESVTEQDSKDSTYSLSSTLTLSKADYEKHKVYACEVTHQGLSSPVTKSFNRGEC
notes: as for B1
B5: GpH7-A5/GpH7-B3 variant P329_14T/GpL16-k0 (antibody, human IgG1, kappa)
heavy 1: not shown
heavy 2: not shown
light: DIVMTQSPLSLPVTPGEPASISCQASESLVHSNRNTYLHWYLQKPGQSPQLLIYKVSNRFSGVPDRFSGSGSGTDFTLKISRVEAEDVGVYYCSQNTHVPPTFGQGTKVEIERTVAAPSVFIFPPSDEQLKSGTASVVCLLNNFYPREAKVQWKVDNALQSGNSQESVTEQDSKDSTYSLSSTLTLSKADYEKHKVYACEVTHQGLSSPVTKSFNRGEC
notes: as for B1
B6: GpH7-A5/GpH7-B3 variant P329_15Y/GpL16-k0 (antibody, human IgG1, kappa)
heavy 1: not shown
heavy 2: not shown
light: DIVMTQSPLSLPVTPGEPASISCQASESLVHSNRNTYLHWYLQKPGQSPQLLIYKVSNRFSGVPDRFSGSGSGTDFTLKISRVEAEDVGVYYCSQNTHVPPTFGQGTKVEIERTVAAPSVFIFPPSDEQLKSGTASVVCLLNNFYPREAKVQWKVDNALQSGNSQESVTEQDSKDSTYSLSSTLTLSKADYEKHKVYACEVTHQGLSSPVTKSFNRGEC
notes: as for B1
B7: GpH7-A5/GpH7-B3 variant P329_16H/GpL16-k0 (antibody, human IgG1, kappa)
heavy 1: not shown
heavy 2: not shown
light: DIVMTQSPLSLPVTPGEPASISCQASESLVHSNRNTYLHWYLQKPGQSPQLLIYKVSNRFSGVPDRFSGSGSGTDFTLKISRVEAEDVGVYYCSQNTHVPPTFGQGTKVEIERTVAAPSVFIFPPSDEQLKSGTASVVCLLNNFYPREAKVQWKVDNALQSGNSQESVTEQDSKDSTYSLSSTLTLSKADYEKHKVYACEVTHQGLSSPVTKSFNRGEC
notes: as for B1
B8: GpH7-A5/GpH7-B3 variant P329_04F/GpL16-k0 (antibody, human IgG1, kappa)
heavy 1: not shown
heavy 2: not shown
light: DIVMTQSPLSLPVTPGEPASISCQASESLVHSNRNTYLHWYLQKPGQSPQLLIYKVSNRFSGVPDRFSGSGSGTDFTLKISRVEAEDVGVYYCSQNTHVPPTFGQGTKVEIERTVAAPSVFIFPPSDEQLKSGTASVVCLLNNFYPREAKVQWKVDNALQSGNSQESVTEQDSKDSTYSLSSTLTLSKADYEKHKVYACEVTHQGLSSPVTKSFNRGEC
notes: as for B1
B9: GpH7-A5/GpH7-B3 variant P329_12R/GpL16-k0 (antibody, human IgG1, kappa)
heavy 1: not shown
heavy 2: not shown
light: DIVMTQSPLSLPVTPGEPASISCQASESLVHSNRNTYLHWYLQKPGQSPQLLIYKVSNRFSGVPDRFSGSGSGTDFTLKISRVEAEDVGVYYCSQNTHVPPTFGQGTKVEIERTVAAPSVFIFPPSDEQLKSGTASVVCLLNNFYPREAKVQWKVDNALQSGNSQESVTEQDSKDSTYSLSSTLTLSKADYEKHKVYACEVTHQGLSSPVTKSFNRGEC
notes: He Ab: P329R (EU numbering) in the GpH7-B3 H chain only; also called GpH7-A5/GpH7-B12/GpL16-k0
B10: GpH7-A5/GpH7-B3 variant P329_03V/GpL16-k0 (antibody, human IgG1, kappa)
heavy 1: not shown
heavy 2: not shown
light: DIVMTQSPLSLPVTPGEPASISCQASESLVHSNRNTYLHWYLQKPGQSPQLLIYKVSNRFSGVPDRFSGSGSGTDFTLKISRVEAEDVGVYYCSQNTHVPPTFGQGTKVEIERTVAAPSVFIFPPSDEQLKSGTASVVCLLNNFYPREAKVQWKVDNALQSGNSQESVTEQDSKDSTYSLSSTLTLSKADYEKHKVYACEVTHQGLSSPVTKSFNRGEC
notes: as for B1
B11: GpH7-A5/GpH7-B3 variant S324_01G/GpL16-k0 (antibody, human IgG1, kappa)
heavy 1: not shown
heavy 2: not shown
light: DIVMTQSPLSLPVTPGEPASISCQASESLVHSNRNTYLHWYLQKPGQSPQLLIYKVSNRFSGVPDRFSGSGSGTDFTLKISRVEAEDVGVYYCSQNTHVPPTFGQGTKVEIERTVAAPSVFIFPPSDEQLKSGTASVVCLLNNFYPREAKVQWKVDNALQSGNSQESVTEQDSKDSTYSLSSTLTLSKADYEKHKVYACEVTHQGLSSPVTKSFNRGEC
notes: as for B1
B12: GpH7-A5/GpH7-B3 variant P329_11K/GpL16-k0 (antibody, human IgG1, kappa)
heavy 1: not shown
heavy 2: not shown
light: DIVMTQSPLSLPVTPGEPASISCQASESLVHSNRNTYLHWYLQKPGQSPQLLIYKVSNRFSGVPDRFSGSGSGTDFTLKISRVEAEDVGVYYCSQNTHVPPTFGQGTKVEIERTVAAPSVFIFPPSDEQLKSGTASVVCLLNNFYPREAKVQWKVDNALQSGNSQESVTEQDSKDSTYSLSSTLTLSKADYEKHKVYACEVTHQGLSSPVTKSFNRGEC
notes: He Ab: P329K (EU numbering) in the GpH7-B3 H chain only; also called GpH7-A5/GpH7-B13/GpL16-k0
B13: GpH7-A5/GpH7-B3 variant P329_07I/GpL16-k0 (antibody, human IgG1, kappa)
heavy 1: not shown
heavy 2: not shown
light: DIVMTQSPLSLPVTPGEPASISCQASESLVHSNRNTYLHWYLQKPGQSPQLLIYKVSNRFSGVPDRFSGSGSGTDFTLKISRVEAEDVGVYYCSQNTHVPPTFGQGTKVEIERTVAAPSVFIFPPSDEQLKSGTASVVCLLNNFYPREAKVQWKVDNALQSGNSQESVTEQDSKDSTYSLSSTLTLSKADYEKHKVYACEVTHQGLSSPVTKSFNRGEC
notes: as for B1
B14: GpH7-A5/GpH7-B3 variant P329_13S/GpL16-k0 (antibody, human IgG1, kappa)
heavy 1: not shown
heavy 2: not shown
light: DIVMTQSPLSLPVTPGEPASISCQASESLVHSNRNTYLHWYLQKPGQSPQLLIYKVSNRFSGVPDRFSGSGSGTDFTLKISRVEAEDVGVYYCSQNTHVPPTFGQGTKVEIERTVAAPSVFIFPPSDEQLKSGTASVVCLLNNFYPREAKVQWKVDNALQSGNSQESVTEQDSKDSTYSLSSTLTLSKADYEKHKVYACEVTHQGLSSPVTKSFNRGEC
notes: as for B1
B15: GpH7-A5/GpH7-B3 variant P329_08L/GpL16-k0 (antibody, human IgG1, kappa)
heavy 1: not shown
heavy 2: not shown
light: DIVMTQSPLSLPVTPGEPASISCQASESLVHSNRNTYLHWYLQKPGQSPQLLIYKVSNRFSGVPDRFSGSGSGTDFTLKISRVEAEDVGVYYCSQNTHVPPTFGQGTKVEIERTVAAPSVFIFPPSDEQLKSGTASVVCLLNNFYPREAKVQWKVDNALQSGNSQESVTEQDSKDSTYSLSSTLTLSKADYEKHKVYACEVTHQGLSSPVTKSFNRGEC
notes: as for B1

How the values were obtained:
FcγRIIa H [1] = target: T1, FcγRIIa H; experiment: SPR (Biacore); He/Con_2aH divided by He/Con_2b (FcγRIIa H versus FcγRIIb)
Protocol: (§1) The heterodimerized antibodies He Abs in which one of the H chains was introduced with an alteration were assayed for their binding activities to each activating FcγR and inhibitory FcγR according to the method described in Example 4. […] The activating FcγRs in FIGS. 26, 27, 28, and 29 are FcγRIa, FcγRIIa (R), FcγRIIa (H), and FcγRIIIa, respectively.
(§2) Analysis of interaction between objective antibody and the FcγR was carried out using Biacore T100 (GE Healthcare). HBS-EP+ (GE Healthcare) was used as the running buffer, and the measurement temperature was set to 25° C. Chips produced by immobilizing the antigen peptide by the amine coupling method to a Series S Sencor Chip CM5 (GE Healthcare), or alternatively, chips produced by allowing preliminarily biotinylated antigen peptides to interact with and immobilize onto a Series S Sensor Chip SA (certified) (GE Healthcare) were used. Antibodies of interest were captured onto an antigen peptide-immobilized chip, and allowed to interact to each FcγR diluted with running buffer. To regenerate and repeatedly use the chip, the antibodies captured on the chip were washed off by reacting 10 mM glycine-HCl, pH 1.5.

FcγRIIb = target: T2, FcγRIIb; experiment: SPR (Biacore), FcγR passed over captured antibody; binding amount as % of control GpH7-A5/GpH7-B3/GpL16-k0 (=100)
Protocol: as §1, §2

FcγRIIa H [2] = target: T1, FcγRIIa H; experiment: as above
Protocol: as §1, §2

Binder | He_2aH/2b (IIaH/IIb) (FcγRIIa H [1]) [ratio] | He/Con_2b (FcγRIIb) | He/Con_2aH (FcγRIIa H [2])
B1 | 1.62 | 40.5 relative, control = 100 | 65.7 relative, control = 100
B2 | 1.64 | 40.4 relative, control = 100 | 66.2 relative, control = 100
B3 | 1.26 | 30.7 relative, control = 100 | 38.7 relative, control = 100
B4 | 1.5 | 29.1 relative, control = 100 | 43.7 relative, control = 100
B5 | 1.65 | 37.9 relative, control = 100 | 62.4 relative, control = 100
B6 | 1.5 | 45.7 relative, control = 100 | 68.7 relative, control = 100
B7 | 1.69 | 39.1 relative, control = 100 | 66.1 relative, control = 100
B8 | 1.38 | 32.2 relative, control = 100 | 44.5 relative, control = 100
B9 | 2.63 | 17.6 relative, control = 100 | 46.4 relative, control = 100
B10 | 1.57 | 38.5 relative, control = 100 | 60.4 relative, control = 100
B11 | 1.22 | 81.1 relative, control = 100 | 98.8 relative, control = 100
B12 | 2.74 | 16.9 relative, control = 100 | 46.2 relative, control = 100
B13 | 1.56 | 34.6 relative, control = 100 | 53.8 relative, control = 100
B14 | 1.64 | 41 relative, control = 100 | 67.3 relative, control = 100
B15 | 1.56 | 29.1 relative, control = 100 | 45.4 relative, control = 100
